Measured values: EP0308499B1, “SUBSTRATE ASSISTED CATALYSIS” (GENENCOR INTERNATIONAL, INC., priority 1987, dated 1988)
Positions count from the first letter of the chain named. Numbers in names are those of the source. Numbered stars: 1 amine (or outer) side, 2 acyl side, 3 side chain; on linkers, the order of the positions; unused ones are H or OH. Peptide text beside a SMILES is read from it. * marks the point of attachment. pNA = O=[N+]([O-])c1ccc(N*)cc1; Suc = O=C(CCC(=O)[*:2])[*:1]

Experiments:
[1] = target: T1, B. amyloliquefaciens subtilisin mutant Cys-24/Ala-64 (Ser-24→Cys/His-64→Ala) (Bacillus amyloliquefaciens, UniProt P00782, H171A/S131C); experiment: Kinetic analysis of hydrolysis of p-nitroanilide peptide substrates (release of ρ-nitroaniline, Eadie-Hofstee plot); format: biochemical
T1 construct: The His-64→Ala mutation caused a severe reduction in secretion of mature subtilisin; made in house; host or cells: Bacillus subtilis BG2036, co-cultured with helper cells carrying active Ala-48→Glu subtilisin
T1 sequence (P00782 108-382 S131C/H171A): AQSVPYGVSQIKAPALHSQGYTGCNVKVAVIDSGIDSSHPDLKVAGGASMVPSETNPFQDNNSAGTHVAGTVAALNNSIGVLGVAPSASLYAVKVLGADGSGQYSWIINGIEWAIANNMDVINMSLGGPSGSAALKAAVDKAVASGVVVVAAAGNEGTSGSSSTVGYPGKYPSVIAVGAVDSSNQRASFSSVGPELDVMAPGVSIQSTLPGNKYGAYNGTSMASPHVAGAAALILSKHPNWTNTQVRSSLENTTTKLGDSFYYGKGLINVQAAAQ
Protocol: (§1) The kinetic parameters for Cys-24 and Cys-24/Ala-64 were determined against the substrates N-succinyl-L-Phe-L-Ala-L-[X)-L-Phe-ρ-nitroanilide (abbreviated sFAXF-pNA), where X (P2 position) was Ala, Gln, or His (Table I). […] By comparison, the His-64→Ala mutation causes a drop of ∿10⁶ fold in kcat/Km against the Ala and Gln P2 substrates. Almost all of the decrease in catalytic efficiency is caused by a decreased kcat term (up to 10⁶ times), although smaller but significant increases appear in Km. […] Although the proportion of functional active sites in Cys-24/Ala-64 enzyme preparations could not be determined directly by such active site labeling, enzyme that was purified by additional native gel electrophoresis (Example 6) had identical kinetic parameters to Cys-24/Ala-64 described in Table V.

[2] = target: T1, B. amyloliquefaciens subtilisin mutant Cys-24/Ala-64 (Ser-24→Cys/His-64→Ala); experiment: Inhibition by the active site reagent PMSF; format: biochemical; conditions: concentration not given
Protocol: as §1
Several lines of evidence indicate that the activity we attribute to the Cys-24/Ala-64 enzyme is not the result of any other protease contamination. Firstly, the extreme substrate preference for His at the P2 position is unlike wild-type subtilisin or any known Bacillus protease. […] Finally, the kinetic values determined for Cys-24/Ala-64 that was additionally purified by native gel electrophoresis (Example 6) are essentially the same as these reported in Table V.

[3] = target: β-lactamase, Serine-70 substituted with cysteine (thiol-containing β-lactamase) (Escherichia coli, UniProt P62593, S68C); conditions: cited from earlier work; for kcat: relative to that of a wild type enzyme
[4] = substrate: C[C@H](NC(=O)[C@H](Cc1ccccc1)NC(=O)CCC(=O)O)C(=O)N[C@@H](Cc1c[nH]cn1)C(=O)N[C@@H](Cc1ccccc1)C(=O)Nc1ccc([N+](=O)[O-])cc1; experiment: Kinetic analysis of hydrolysis of p-nitroanilide peptide substrates (release of ρ-nitroaniline, Eadie-Hofstee plot); format: biochemical, B. amyloliquefaciens; conditions: other: 0.10 M Tris-HCl (pH 8.6), 10 mM DTT, 25±0.1°C, 25.0 °C
Protocol: as §1

[5] = substrate: C[C@H](NC(=O)[C@H](Cc1ccccc1)NC(=O)CCC(=O)O)C(=O)N[C@@H](CCC(N)=O)C(=O)N[C@@H](Cc1ccccc1)C(=O)Nc1ccc([N+](=O)[O-])cc1; experiment: as above; format: biochemical, B. amyloliquefaciens; conditions: other: 0.10 M Tris-HCl (pH 8.6), 10 mM DTT, 25±0.1°C, 25.0 °C
Protocol: as §1

[6] = substrate: C[C@H](NC(=O)[C@H](C)NC(=O)[C@H](Cc1ccccc1)NC(=O)CCC(=O)O)C(=O)N[C@@H](Cc1ccccc1)C(=O)Nc1ccc([N+](=O)[O-])cc1; experiment: as above; format: biochemical, B. amyloliquefaciens; conditions: other: 0.10 M Tris-HCl (pH 8.6), 10 mM DTT, 25±0.1°C, 25.0 °C
Protocol: as §1

## C[C@H](NC(=O)[C@H](Cc1ccccc1)NC(=O)CCC(=O)O)C(=O)N[C@@H](Cc1c[nH]cn1)C(=O)N[C@@H](Cc1ccccc1)C(=O)Nc1ccc([N+](=O)[O-])cc1 [His, N-succinyl-L-Phe-L-Ala-L-X-L-Phe-ρ-nitroanilide] (Suc-FAHF-pNA)
[1]; kcat/Km compared with wild-type subtilisin
  catalytic efficiency below wild-type: 5,000 fold
[1]; pH 8.6, Table V data
  kcat of the His P2 substrate larger than that of the Ala P2 substrate by a factor: 2,000
  kcat of the His P2 substrate larger than that of the Gln P2 substrate by a factor: 500

## O=S(=O)(F)Cc1ccccc1 [PMSF, phenylmethylsulfonyl-fluoride]
[2]
  inhibition by PMSF: completely resistant to inhibition

## O=C(Cc1cccs1)N[C@@H]1C(=O)N2C(C(=O)O)=C(/C=C/c3ccc([N+](=O)[O-])cc3[N+](=O)[O-])CS[C@H]12 [nitrocefin]
[3]; relative to that of the wild type
  Km: greater than 10 fold

## CC1(C)S[C@@H]2[C@H](NC(=O)Cc3ccccc3)C(=O)N2[C@H]1C(=O)O [benzyl penicillin]
[3]
  kcat: 1-2%

## CC1(C)S[C@@H]2[C@H](NC(=O)[C@H](N)c3ccccc3)C(=O)N2[C@H]1C(=O)O [ampicillin]
[3]
  kcat: 1-2%

B1: B. amyloliquefaciens subtilisin, recombinant Cys-24 (Ser-24→Cys; kinetically essentially identical to wild-type) (Bacillus amyloliquefaciens; S131C) (protein)
chain: T1 sequence (P00782 108-382 S131C/H171A) with A64H
notes: Maturation of the primary subtilisin gene product (preprosubtilisin) to subtilisin in B. substilis is believed to be mediated by autoproteolysis; made in house
[4]
  Km: 23 µM
  kcat: 4.6 s⁻¹
  kcat/Km: 2.0 x 10^5 s^-1M^-1
[5]
  Km: 39 µM
  kcat: 7.0 s⁻¹
  kcat/Km: 1.8 x 10^5 s^-1M^-1
[6]
  Km: 10 µM
  kcat: 8.1 s⁻¹
  kcat/Km: 8.0 x 10^5 s^-1M^-1

B2: B. amyloliquefaciens subtilisin mutant Cys-24/Ala-64 (Ser-24→Cys/His-64→Ala) (Bacillus amyloliquefaciens; H171A/S131C) (protein)
chain: T1 sequence (P00782 108-382 S131C/H171A)
[4]; in the presence of PMSF
  Km: 380 µM
  kcat: 0.016 s⁻¹
  kcat/Km: 42 s^-1M^-1
[5]; in the presence of PMSF
  Km: 150 µM
  kcat: 3e-05 s⁻¹
  kcat/Km: 0.20 s^-1M^-1
[6]; in the presence of PMSF
  Km: 32 µM
  kcat: 8.1e-06 s⁻¹
  kcat/Km: 0.25 s^-1M^-1
